Publication PMC10986502

Tested on: His6-Fur (Riemerella anatipestifer CH-1)
Assay: EMSA
Settings: 5 mM Mn2+ (surrogate for Fe2+); EMSA: 2.5% glycerol, 0.05% NP-40, 5 mM MgCl2, 1 uM ZnSO4, 5 mM MnCl2; 1 ug DNA, 2-8 ug Fur in 20 uL; room temperature 20 min; pH and salt not given; 6% native …

Substance: rhuB promoter (194 bp)
- Kd: 4.3 nM
